B1: Chromosomal passenger complex protein bir1 (Schizosaccharomyces pombe (strain ATCC 38366 / 972)), O14064 (parent)
chain: MKPITSSSKRRWNRFRREMCNYSKRLDTFQKKKWPRAKPTPETLATVGFYYNPISESNSEERLDNVTCYMCTKSFYDWEDDDDPLKEHITHSPSCPWAYILSSKNNPNQNPQAAALTKCREQTFVDKVWPYTNRPDYHCEPSVMAASGFVYNPTADAKDAAHCLYCDINLHDWEPDDDPYTEHKRRRADCVFFTWKDPNSLSPTKLSFLSTSNIDPEDLTEDNSILPVSPTRDSTKSHKTLNFSPSRKNNLNARPLTMSLYTNTSEEKDSQPTRAPQSPTKPVLLTAPRRKNKSPKKSKPAVFKPVKPIFSDEDEDDDDLTASQPFSKGICNDSMQVAKKNFTEEIPLKEDEKDNELEHLVSPATSVHTTVSDITGHQSVTDESDEQNNCMSTPPKIEIESKIEEEISVVSKSKEISSSVSSVGKEQNHTEKQVAIETPEQQKVEKEDEHLNLQGSFIEESTKQPISSKPSTSSPDMTDAATGGRVSSSSFRDKILQTNFSPRSTIDSFSNISKKRNSEEANDENDETNLKIPIPEKKRKFQEVLQSKNILVSSTEDSHEPVKVTEDSQTAIHVSKFEDLENKSMESEQSLQLLSESENDDKPLIDLIPLLAIKRKDNLVSGVLEKGKSTSTSKTKFDTSIVDFIEKPKTEISEVLPEEKRKAICDESQTVRVSIDRGVTKTRDVSSPVSDEKSENVNHEEANSGHTVMNVHSSLDPQPIVQPNELESGSYLKDLPDRNVGNSEKVTFQEDDINSPKLQSKNNQTVEAVNTETSDKLQEKEANHELENIEKIEEKLTEVDKVSLSDAFPDQEIKNSRTSVQNGTRSVSKNTPEKETKVDKIDNVSKKDVETSPGSCETSSAFAKTYAEKEVTSINLPSVRKPLDESYYDHSISPFDPLCQSSFLAPQTPVKSKHALPLVEANAPPWEPIDFSSLLESPVPNPVEPNKLSEKELDMTVEQWIKFMYAKCAKEFEEACEEKIEWLLEEGKRAEEYIQNL
partner: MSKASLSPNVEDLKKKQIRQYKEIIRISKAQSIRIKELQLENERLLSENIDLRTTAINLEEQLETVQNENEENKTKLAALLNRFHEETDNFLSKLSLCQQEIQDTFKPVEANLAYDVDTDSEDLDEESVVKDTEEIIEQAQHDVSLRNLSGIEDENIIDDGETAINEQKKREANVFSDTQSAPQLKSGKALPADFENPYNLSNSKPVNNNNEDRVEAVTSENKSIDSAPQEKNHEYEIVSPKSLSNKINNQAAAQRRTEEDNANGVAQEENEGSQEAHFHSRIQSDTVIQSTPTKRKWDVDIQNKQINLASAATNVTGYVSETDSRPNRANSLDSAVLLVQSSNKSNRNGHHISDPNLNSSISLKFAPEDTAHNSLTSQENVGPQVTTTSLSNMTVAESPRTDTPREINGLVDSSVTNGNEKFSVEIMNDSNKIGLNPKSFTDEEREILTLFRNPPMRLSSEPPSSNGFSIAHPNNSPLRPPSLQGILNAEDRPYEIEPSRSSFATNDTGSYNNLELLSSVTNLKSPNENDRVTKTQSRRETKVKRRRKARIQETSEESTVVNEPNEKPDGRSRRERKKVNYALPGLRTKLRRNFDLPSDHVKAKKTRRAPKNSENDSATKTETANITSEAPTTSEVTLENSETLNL
B2: Borealin (Homo sapiens), Q53HL2 (parent)
chain: MAPRKGSSRVAKTNSLRRRKLASFLKDFDREVEIRIKQIESDRQNLLKEVDNLYNIEILRLPKALREMNWLDYFALGGNKQALEEAATADLDITEINKLTAEAIQTPLKSAKTRKVIQVDEMIVEEEEEEENERKNLQTARVKRCPPSKKRTQSIQGKGKGKRSSRANTVTPAVGRLEVSMVKPTPGLTPRFDSRVFKTPGLRTPAAGERIYNISGNGSPLADSKEIFLTVPVGGGESLRLLASDLQRHSIAQLDPEALGNIKKLSNRLAQICSSIRTHK
B3: Borealin (Homo sapiens), Q53HL2 (parent)
chain: B2 chain
partner: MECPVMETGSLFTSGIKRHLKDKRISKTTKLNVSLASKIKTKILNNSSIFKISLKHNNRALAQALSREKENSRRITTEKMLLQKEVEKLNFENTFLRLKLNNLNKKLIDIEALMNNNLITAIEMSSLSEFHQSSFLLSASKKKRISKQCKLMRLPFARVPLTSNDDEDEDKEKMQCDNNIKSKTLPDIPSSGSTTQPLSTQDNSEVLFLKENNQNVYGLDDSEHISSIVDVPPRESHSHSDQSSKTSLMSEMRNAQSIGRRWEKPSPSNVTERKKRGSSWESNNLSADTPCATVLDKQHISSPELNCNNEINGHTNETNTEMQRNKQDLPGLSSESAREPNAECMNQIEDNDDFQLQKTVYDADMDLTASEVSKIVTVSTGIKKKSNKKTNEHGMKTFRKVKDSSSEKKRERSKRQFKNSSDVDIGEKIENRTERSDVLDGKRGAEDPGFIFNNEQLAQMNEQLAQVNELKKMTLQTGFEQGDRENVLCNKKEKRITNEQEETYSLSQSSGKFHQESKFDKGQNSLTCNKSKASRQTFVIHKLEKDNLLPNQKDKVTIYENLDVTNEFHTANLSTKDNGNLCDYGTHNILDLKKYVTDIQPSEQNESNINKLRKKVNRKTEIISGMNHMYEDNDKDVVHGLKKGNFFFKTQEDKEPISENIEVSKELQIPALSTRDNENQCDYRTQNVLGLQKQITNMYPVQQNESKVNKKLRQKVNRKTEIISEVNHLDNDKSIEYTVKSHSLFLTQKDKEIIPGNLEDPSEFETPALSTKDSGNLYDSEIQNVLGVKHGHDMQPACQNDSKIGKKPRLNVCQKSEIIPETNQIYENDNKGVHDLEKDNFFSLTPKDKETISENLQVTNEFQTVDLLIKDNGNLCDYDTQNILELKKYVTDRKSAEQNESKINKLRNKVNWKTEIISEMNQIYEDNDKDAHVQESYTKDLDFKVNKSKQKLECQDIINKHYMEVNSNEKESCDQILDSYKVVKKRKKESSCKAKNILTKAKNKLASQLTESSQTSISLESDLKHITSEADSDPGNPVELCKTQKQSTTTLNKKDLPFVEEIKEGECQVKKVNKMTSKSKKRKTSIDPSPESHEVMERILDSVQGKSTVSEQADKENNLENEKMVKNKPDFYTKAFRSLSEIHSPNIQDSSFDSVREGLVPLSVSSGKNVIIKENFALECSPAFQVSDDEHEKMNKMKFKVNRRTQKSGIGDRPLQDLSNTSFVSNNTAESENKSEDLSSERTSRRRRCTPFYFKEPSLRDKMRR

Variants of: B1
Conditions: with sgo2_schpo sgo2, O13734

Row | effect of a mutation on the interaction | Variant
1 | disrupting interaction | S202A;S229A;S244A;S278A;S294A

Variants of: B1
Conditions: with sgo2_schpo sgo2, O13734
Remark: another data set of the same source

Row | effect of a mutation on the interaction | Variant
2 | disrupting interaction | S202A;S229A;S244A;S278A;S294A;T393A;T831A;T908A

Variants of: B2
Conditions: with sgo1_human SGO1, Q5FBB7
Chain of sgo1_human SGO1, Q5FBB7 (Q5FBB7 whole entry): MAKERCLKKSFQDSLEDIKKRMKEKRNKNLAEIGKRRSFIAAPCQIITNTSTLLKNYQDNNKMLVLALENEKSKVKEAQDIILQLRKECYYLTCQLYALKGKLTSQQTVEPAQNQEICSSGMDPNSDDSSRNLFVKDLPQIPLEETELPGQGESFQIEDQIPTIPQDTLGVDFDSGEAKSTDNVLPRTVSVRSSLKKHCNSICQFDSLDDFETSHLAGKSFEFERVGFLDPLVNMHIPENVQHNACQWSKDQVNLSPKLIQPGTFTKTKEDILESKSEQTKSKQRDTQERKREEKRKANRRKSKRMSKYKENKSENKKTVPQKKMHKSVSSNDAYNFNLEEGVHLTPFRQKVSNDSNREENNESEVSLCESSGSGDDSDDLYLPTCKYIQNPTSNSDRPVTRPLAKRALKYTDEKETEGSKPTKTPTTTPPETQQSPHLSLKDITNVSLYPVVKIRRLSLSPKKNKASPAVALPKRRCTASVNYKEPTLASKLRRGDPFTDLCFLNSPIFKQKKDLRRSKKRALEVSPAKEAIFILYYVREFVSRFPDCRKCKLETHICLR

Row | effect of a mutation on the interaction | Variant
3 | disrupting interaction strength | MAPRKGSSRVAKTNSLRRRKLASFLKDFDREVEIRIKQIESDRQNLLKEVDNLYNIEILRLPKALREMNWLDYFALGGNKQALEEAATADLDITEINKLTAEAIQAPLKSAKTRKVIQVDEMIVEEEEEEENERKNLQTARVKRCPPSKKRTQSIQGKGKGKRSSRANTVAPAVGRLEVSMVKPAPGLAPRFDSRVFKAPGLRAPAAGERIYNISGNGAPLADSKEIFLTVPVGGGESLRLLASDLQRHSIAQLDPEALGNIKKLSNRLAQICSSIRTHK [T106A;T171A;T185A;T189A;T199A;T204A;S219A]

Variants of: B3
Conditions: with sgo2_human SGO2, Q562F6

Row | effect of a mutation on the interaction | Variant
4 | disrupting interaction strength | MAPRKGSSRVAKTNSLRRRKLASFLKDFDREVEIRIKQIESDRQNLLKEVDNLYNIEILRLPKALREMNWLDYFALGGNKQALEEAATADLDITEINKLTAEAIQAPLKSAKTRKVIQVDEMIVEEEEEEENERKNLQTARVKRCPPSKKRTQSIQGKGKGKRSSRANTVAPAVGRLEVSMVKPAPGLAPRFDSRVFKAPGLRAPAAGERIYNISGNGAPLADSKEIFLTVPVGGGESLRLLASDLQRHSIAQLDPEALGNIKKLSNRLAQICSSIRTHK [T106A;T171A;T185A;T189A;T199A;T204A;S219A]

From IntAct's records for PubMed 20739936
